The text below walks through data of US20070065878A1.

Data set [1] has as its system T1, Canonical (enteropeptidase substrate).
T1 sequence: DDDDKGGQS

Data set [2] concerns T2, CyPet-YPet substrate with recognition sequence SGDRMW (EP4.3).
T2 sequence: SGDRMWHHHHHH

The test system of data set [3] is T3, Dabcyl-SGDRMW(E-Edans)-amide.
T3 sequence: SGDRMW

Data set [4] concerns T4, EP 2.2.
T4 sequence: AAVERWGGS

In data set [5] the test system is T5, EP 2.5.
T5 sequence: MSGERMGGS

The subject of data set [6] is T6, EP 3.6.
T6 sequence: GSSDRARVW

Data set [7] has as its system T7, EP 4.10.
T7 sequence: GSSERAAAG

For data set [8], the system named is T8, EP 4.1.
T8 sequence: SVDYRFLGS

Data set [9] concerns T9, EP 4.2.
T9 sequence: MHGERMGGS

For data set [10], the system named is T10, EP 4.3.
T10 sequence: SSGDRMWGG

Data set [11] has as its system T11, EP 4.4.
T11 sequence: SEYDRQLGS

The test system of data set [12] is T12, EP 4.6.
T12 sequence: SSGERMMGG

For data set [13], the system named is T13, EP 4.7.
T13 sequence: GSDDRRAGG

Data set [14] relates to T14, EP 4.8.
T14 sequence: VRDYRMGGQ

In data set [15] the test system is T15, EP 4.9.
T15 sequence: SVLDRWMGG

For data set [16], the system named is T16, negative control displaying the sequence GGQSGQ.
T16 sequence: GGQSGQ

The test system of data set [17] is T17, MPLVM (MMP substrate, 5X library).
T17 sequence: MPLVM

Data set [18] relates to T18, MPVVL (MMP substrate, 5X library).
T18 sequence: MPVVL

Data set [19] has as its system T19, PMAVI (MMP substrate, 5X library).
T19 sequence: PMAVI

For data set [20], the system named is T20, PMAVT (MMP substrate, 5X library).
T20 sequence: PMAVT

The subject of data set [21] is T21, PVAMR (MMP substrate, 5X library).
T21 sequence: PVAMR

Data set [22] has as its system T22, PVNVV (MMP substrate, 5X library).
T22 sequence: PVNVV

Data set [23] has as its system T23, PVPMV (MMP substrate, 5X library).
T23 sequence: PVPMV

The subject of data set [24] is T24, TPLAL (MMP substrate, 5X library).
T24 sequence: TPLAL

For data set [25], the system named is T25, VPLNM (MMP substrate, 5X library).
T25 sequence: VPLNM

For data set [26], the system named is T26, VPMVV (MMP substrate, 5X library).
T26 sequence: VPMVV

Data set [27] has as its system T27, VPVNM (MMP substrate, 5X library).
T27 sequence: VPVNM

Data set [28] has as its system T28, VPVVM (MMP substrate, 5X library).
T28 sequence: VPVVM

In data set [29] the target is T29, Canonical (caspase-3 substrate).
T29 chain: QDEVDGGQS

“And” between values parts separate entries of the source, which are not always exact repeats. Identical values can stand only once.
Wherever % Conversion is given: test concentration or dose not given here.

“catalytic subunit light chain of enteropeptidase”: the Conversion (fraction converted) was 0.15 in [1]; 0.69 in data set [4]; 0.84 in data set [5]; 0.86 in data set [6]; 0.78 in [7]; 0.84 in data set [8]. Moreover, the Conversion (fraction converted) in data set [9] turned out to be 0.84; in data set [10] it was 0.97; in [11], 0.71; in [12], 0.93; in data set [13], 0.91; in [14], 0.87. The Conversion (fraction converted) in data set [15] worked out at 0.72. The same molecule came in with a decrease in mean fluorescence intensity (SA-PE label) after incubation with enteropeptidase in [1] of 20 fold. For the same molecule, the “cleavage rate of the CyPet-YPet fusion by fluorimetry, relative to DDDDK” value in data set [2] was “cleaved at a rate 17-fold faster than DDDDK”. In addition, in data set [3], the kcat/KM of the synthetic fluorogenic peptide, relative to DDDDK is greater than 5 fold. In addition, the “change in fluorescence (SA-PE label) after incubation with enteropeptidase” value in data set [16] is listed as “exhibited minimal change in fluorescence”.
Regarding matrix metalloprotease-1, the % Conversion (fraction (head says % Conversion)) was 0.659 in [17]; 0.428 in data set [18]; 0.699 in [19]; 0.504 in [20]; 0.729 in data set [21]; 0.789 in data set [22]. Moreover, the % Conversion (fraction (head says % Conversion)) was 0.496 in [23]; 0.417 in data set [24]; 0.844 and 0.61 in data set [25]; 0.814 and 0.443 in [26]; 0.76 in data set [27]; 0.366 in data set [28].

B1: caspase-3 (protein)
chain: MENTENSVDSKSIKNLEPKIIHGSESMDSGISLDNSYKMDYPEMGLCIIINNKNFHKSTGMTSRSGTDVDAANLRETFRNLKYEVRNKNDLTREEIVELMRDVSKEDHSKRSSFVCVLLSHGEEGIIFGTNGPVDLKKITNFFRGDRCRSLTGKPKLFIIQACRGTELDCGIETDSGVDDDMACHKIPVEADFLYAYSTAPGYYSWRNSKDGSWFIQSLCAMLKQYADKLEFMHILTRVNRKVATEFESFSFDATFHAKKQIPCIVSMLTKELYFYH
In data set [29], B1 displayed a Conversion (fraction converted) of 0.95.
